Source: the NTF2 design screens of Basanta et al. (2020)

Experiment: protease stability score; higher = more stable; yeast display proteolysis, trypsin and chymotrypsin;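 also: relative to predicted unfolded state with 0 unfolded-like and 1 meaning tenfold more protease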

| Sequence | protease stability score |
| --- | --- |
| SHDELLATRLVEEVWELWLTGDEDRTAELLDPDVRFFFIVGDKTHTFHGRDKIRKLMHDLRNHWRIHHIRIERFRVQGEYSEFDVRSHGRYNGVEEETTVHLSLDVVNGKVKRIIVHIR | 1.6 |
| SHEDELIEKTLHITLEAYTTGDEHTVTRMLDPHVKILFNGVELIGRELVWEHLKEIRMHWHHVHIEDIKRQGEKIHITGRLYMEIRQGDYRERSTYRTRIITLKINGRWFIESLEIN | 1.95 |
| SHEDELIERFYKWLIHILETGDEERWMEYADPDARLLYNGKDLIGRDEARRQMHEMRFHHMEVKSIRVVDGKVNVTGRIDGEINGRHHEHEVLLVIIKFNGKWLIKTVQFH | 1.22 |
| SHEDELNEKIAKTFFKDLLTGDEDSITHLLDPNARVHIHVNGRHILIHGREWLEYLKKHARIRHFELHDMEIQGDKLIFDVEVVIEYGDKVIERRSEEILILFNGRVTSYHLIIK | 1.2 |
| SHEDELSRHILETWKEILDTGDEHTEHELADPNTRIEVDGRDIMGWHAWNHFLRKMGIKHIHFERVSIQGNKIHIDGIMEFDGRRRKTDIDLHVVNGRIESIRYEVK | 1.63 |
| SHEDHLVDLAFEVWRRDLETGDEDLLKKLVDPNVRIIQGDKMYHGMDDYVERLRRIWEELGVDYIQVHLEHSRQVNGVAELDVRLKLRIGDKRREYRLHLHIEKVNGKWQIKQINIQ | 0.277 |
| SHEDKLNEEVARLIIHAWKTGNERLMLKLLDPHTRFEQGDKEMVGREHLLEMLRHRLEELGVDHIDFKDYKIDVVDGVLNIYLRIEIEVGDKHIDMIIKVIVLKFDGRWHVHEVRVEER | 1.5 |
| SHEDRWIEHMVDLLEELFHTGDWEHLRHLFDPNTRSNINGKEFHGRDLAIKLVVEKMEFFKGARTDVEHRHVQGEKVELIFRLEYNGRRFHLSIRLQVVNGRVKEVNVKIDTE | 1.67 |
| SHEEEDEHRLVIEWLEAVLTGDEDRLTELFDPNMRFVFENHQVHGRERVSKLLVRHMLEWRTRVKIEDMEYFNGRLHIDMELHVDVNGRHVNIKSLLIVEKINGKWFVRSVRVR | 0.534 |
| SHEEEESTKVAEDWLRHVLTGDEEDMTKLADPNTKVDVGDKHMHGMRSYWEFLHEIRIKHVHVHRIHIELVNGRAFIIIDGEIHEEVGDKEVEIKSRFILIVEKVNGRWIIREVRYQRI | 1.54 |
| SHEEEIAREISRDLFRAFLTGDEDWLLKNLDPDARLHVSVGDKSEHFHGREEVMKFVREWRVHRIEIKELRVFNGRIHSRVHVYGEFNGQRFRTDIHENYNIVDGRIKEIHVEIR | 1.66 |
| SHEEELEEKIARILLEAWITGDEEFLFRLADPNVKLDIKYGDKRHIHIGREELLKWYRHELERFKNMKIVLHDRHIQGEKVHLHLVMHFNGQRIDVRIEVIIINGRIKHIHIEVDEK | 2.6 |
| SHEEEMAERALRKFIHSVQTGDEDSWEELLDPNVRINIGDKRHVGRHEAVKLFRQRIRHLRIDHIELRERDYYGDKLILRIIVEGRFNGQETTLELHIVFWKFDGRWIIESMEHK | 2.77 |
| SHEEEMHLHVAELMLKLLLTGNEEELAKLMDPNVQTEIDGRSYHGRELIIDLIRHSREKLGVNHSELKRSHVRLVDGRLHVHLDSRFLVNGVWLDVEIEMFVLKINGKWVIESVHVRVR | 0.718 |
| SHEEHEMHNALKLLLDAWRTGDEDSLNNNADPRMKIKVNGKEFVGMEHMTHFLRELLEELRFTDSTVTELDIVNGVLISVTRLHIEVGDKRMDFHTRLVFTKVNGRWRLHSLVLI | 1.99 |
| SHEEHHLYEVAEMLLRWWRTGDEDSLYKFIDPHARVEIGEYSVHGREHIVRLMSRHLREIRLKDTDVHRIDVINGQTVLNVRLRGEINGVDTNVDARLHVVVVDGVVHSIHIEHI | 1.24 |
| SHEEHLKRDMLERSFKAWLTGDEESLHELLDPHVRVHFNGRDFHGRELVSTLIREMLRWLGIKHSRFHHIQVFDGKARLELRLEQGEFEVEIEVISLKVDGRWFQHELRFH | 1.02 |
| SHEKELNERAFRILIEELMTGDEDSWRKLADPNTRHIIDGQTYHGMDFFHEHVRKMGMTIHHVELEDYRFQGEKAVLILHIDGRQGEKHDKIRITIFIEKVDGRWILREVRIG | 1.17 |
| SHEQEEARFFLDVLIEWFLTGDEEHMMKNADPNVRIEVGDKHLHGRELTYEWLKELRFKHHHVHRVTSQGDKVYYDVKVDGHINGVDRHSLEIIITLKFDGRWILKSIHVR | 1.95 |
| SHHEDDSEISIELTHNLIETGDFELLTELFDPNARMDYNGVTVHGRERVSEFLSRFAHHIRIKRRILRHMDLFDGQIHLHEEYHYDWDGQDIHTEVRFRSEKVNGRWVPKLLHRI | 0.969 |
| SHHEEHLHEMLRLILEAWETGDEDFLEELADPRVQLIVNGKDIHGRHVFRTMLRTHIEQMRIKRVTPRRVRNYDGRVESDIEVDGIIDGQRRKYRTTWVVEIIDGRVESLSLHFI | 0.723 |
| SHHEEHLKRLESFLLEATDTGDEDFLTKLIDPHVKLDIDGVELHGREDWLKYFLDLGVDHVRITSSRDINGRLHLTTRMHIGDKITETRVHSEKFDGQWVIKEIIIH | 0.823 |
| SHKEEEFRRLFELTIRMFLTGDEDVMSKLMDPNVRLQVHVNGKNIEIHGWENLIKTFIDLGIDHWEFKRSDIIGDFVMLDGRIEFNGRRSNTELRFLIIDGRVKSIIIKIE | 2.05 |
| SHLEEDAEKALRHLIHLFYTGDEKTLHNLADPNTRFRIGDKEYHGMEYILEFWLHIRLEDFDVERMSVQGDKIHIDSRMTLHFNGRSREIEVHILLLKYNGVWRIEEVRIH | 1.24 |
| SHLEEEAKEAHDVWLHELLTGDEHQINRLLDPHTRVHIGDKDLHGRHELVRKMVETVRRVDHYHLKIKHLRVQGDKIVSTGNYTLHINGKDIHIDTRLILTKIDGVWILEEIRVE | 1.16 |

| Sequence | protease stability score |
| --- | --- |
| SHLEEETMHIAEIFIKNELTGDERKLVELLDPNTRLHIDIGDKHIDVHGMENITKLLREIWKRLGADHVHIKDVRVQGDKADIITRIDVNGREIHSRIHILVINGKIESLKLHVE | 1.33 |
| SHLEEHLKENLKREEEARRTGDFRFFSRLADPHVKIIINGVELHGMETYNEHWRQIWHDSHHMEITSIDVQGDKIEADIRIIEHGRINGVRESIVLTVRLRFEKINGRWVLTMIIIE | 0.077 |
| SHLKEDLRRALEKELQDLRTGDEEKIVRMMDPNVRLHIDGVELHGRDWLSRYAKEMRTEHIELRRFETQGNKIHIDTEVDLRYGDFRRDVHVEIIAIKVDGRWVKHETEVR | -0.081 |
| SHLSEIAEEIMRELAHAQITGDEHTISRLLDPDTRVEFNGQELHGRDSWVKFLRELGVDHIEIRLEIKRMRIFENRVEIDGVDHIIIRYNGREERREIPSHWDLMKIDGRWSIHSVRAE | 1.4 |
| SHNDKLWHEDIELFIEAWETGDWKLLVEMLDPHTRIEIRQGDKTIVLHGREDASRDIIEYTEFFKNVTITKDDRHIQGDKTEMHITIIIGEFVLRTIIEFDMFNGQLKTYRRKVL | 1.18 |
| SHNEEQSEREAKLEIEAYLTGDFDTLHRLADPNVRNNIEYGDKEIRLHGREEWVHQFYKLVEEYKGVKIHLQHLEYQGDKVILRIEIRVNGRERVLEIQIHVINGRSKEVNVETHVH | 1.18 |
| SHVEEEAEHFWEELVRAYKTGDENLLKRLADPNVKVDINGRELIGREEFARVVSEERRQMRSHVELHDIRKDGDKMHINTILRIHIGDKEVSRTTHLHSIKVDGRWRLETWHIV | 1.06 |
| SHVEEESREAIERFEHLLRTGNEEELENLADPNVLLRVNGKEIWGRERAIKHIIHEMTRVKNMKLTSESFEISENHIHFKFTLTINGKIIHLEIVTKKVDGRWVIKHVEFH | 1.32 |
| SHVEELSHEVTRWVDIALQTGDERVIDEYLDPNARIDVGDKHFIGREEMSEFYSEFSRRVKNLKLSRYHKKDERIIGNKVILHGKLNVNINGRSHEIDTEIVSMKVNGRWLVEKEIVN | 0.302 |
| SHVEQESREIFEQIVRNLKTGDEDLLTELLDPNTLHIVNGVEIHGMEIVAKFLLDWRRKVKNIRIHDEEERHIEIYGDKVISHVDMDGIVNGRRVRRENIWIAEKVDGRWVIREVEVR | 1.94 |
| SHVKEIIRHFFDELVRRRETGDEEVLKELADPHTRLRVGEKEIHGWDEILTRFITWLEIHGAEYTDHRIHDIRVVGEKVHVESEIDIDYNGKHVEHHFEIVVEKINGRWRMKSIFVS | 1.27 |
| SHWDQRLEELSKLVVDHLNTGDFEEIKRLVDPHMRLEIGDKTRIGREQIHEWLEEFLRRYKNARVEIRIEHHELYGEKFFADTRLNLHVGDKHHHFDTRLEIHVIDGKIHSMSMRIH | 1.1 |
| SHWEEDARRFNEIFITHFMTGDWHHLERMLDPHTRAHINGVNTVGREEVSRLVTELFEELGAKHHRIHDFRIQGDKVDTHHHLDVNGRNNHFIIHVKKINGKWRVESIEMTVI | 1.22 |
| SKDDEIIHTLIRFIVHILQTGNEEESHRMADPNAKSNINGVEVHGREEFVDLWVEWMERLGHDRVHSRLRHVNIQGDKAIMHIELDVNGKEFNLIVFIRKVNGRWYLEEMTID | 2.11 |
| SKDEDDMRRWAEILIQDFITGDEDRMNHLLDPNTRVQVNGVQDHGMEALEKLFEILGFKHIDIKDLHIKLIGDKVEQDVVLRLNVNGKERKVKVHNFAEKVDGRWFVESITVHVR | 1.02 |
| SKDEEDAEEFFEKWLRYSRTGDEKSMEELMDPNTKIDFNGKEIHGREEVLRFLIELRVHHIEIKRISSINGKLHIDGRFDIIYGDKRIDTRTVLEIDKINGRWHLHTVRFV | 2.12 |
| SKDEKTLSHFIKFLEDVEKTGNFEDFYELMDPDAKLVVNGVEHHGRDEFTRFIKEFMDRVDHIHYTDVHHIILQGDKVIIDAKVRGVWDGVERELRVKIIIVKINGRWYLKSFEEE | 1.87 |
| SKEDEDFNERTREWLEILETGDWRKLARLLDPNVLNIVGDKEHHGREEVIKSFRTYLEKVPNMRFTTRRIRLQGDKVDLDGDLYFNGKEIKVRIFLVIYDGRVHSMEVREE | 1.09 |
| SKEDRDAKWAFEHLMHLLHTGDEEKINENLDPNARNEFDGRELHGREIITEILRNLGIKHLHIHSVEFISQGDKLFSNVDGNNIFDGREVHTHLHFIIEKFNGKWNIKSIHIKIT | 1.19 |
| SKEEDMMRKIVEDFSRAQWTGDEKKVDELLDPNTRSDINGVHIVGMEEYLRVMKHRGVEFKHSEIKDVNLQGDKATWDGIDHVNFNGKDIELQVHIYLRKINGRWSIHTLKVQ | 0.386 |
| SKEEEDARFMMHLWEHVLRTGDEDVLHKLADPDVKIIIGDKEHVGREELIDIFRERLKEWRIHDFHIRRVHVINGKVHVDGETDGTINGRRIIFRIEIHLVIVDGRIKEVEEDME | 1.87 |
| SKEEEDTERITRLILEYLLTGDEDVFNHLADPNVRLVIDGRLVHGRERASRIMVESYEKFGADHREVRMHSVRDVDGRIHSDIKVHVHIGDKRQNLSHEVYSTKYDGRWIIKSVILT | 0.245 |
| SKEEEHAYRVMEIILKQHLTGDEEEISRLLDPHVKMDVDGVILHGRENASRWLFEWIRFFKGLRLHIHIEDIQVQGEKSHHHTRLHITINGRTQNYRFKVHAVVVNGQIKHFELDWD | 1.39 |
| SKEEHDAKYIAMLVVENLLTGDWERLFRYLDPHARMEFKVGDKHIETHGWKEIKETLDELITEWRTDDMKVRDIKVYGDKVDVEGEMRGDINGRIRTIEVRIEVIVVNGRLKDISFEVK | 1.95 |
| SKEEHETHRMIEHILKIVKTGDEENIHKNLDPHVRVNVNGRNLHGREEFVRVMYQWWHEAGVDHVHLTDFEIQGDKAHIHIDEHFNGKRHHIEIIAQKVNGKWLMREVIID | 1.39 |
